Measured values published in a protein production outcome set (Wang et al. 2014).

experiment: label from the status in PepcDB records
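Further: failed if final PepcDB status was selected cloned or expressed and not failed if soluble or beyond.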

| Sequence | protein production |
| --- | --- |
| MDWGTELWDQFEVLERHTQWGLDLLDRYVKFVKERTEVEQAYAKQLRSLVKKYLPKRPAKDDPESKFSQQQSFVQILQEVNDFAGQRELVAENLSVRVCLELTKYSQEMKQERKMHFQEGRRAQQQLENGFKQLENSKRKFERDCREAEKAAQTAERLDQDINATKADVEKAKQQAHLRSHMAEESKNEYAAQLQRFNRDQAHFYFSQMPQIFDKLQDMDERRATRLGAGYGLLSEAELEVVPIIAKCLEGMKVAANAVDPKNDSHVLIELHKSGFARPGDVEFEDFSQPMNRAPSDSSLGTPSDGRPELRGPGRSRTKRWPFGKKNKTVVTEDFSHLPPEQQRKRLQQQLEERSRELQKEVGQREALKKMKDVYEKTPQMGDSASLEPQIAETLSNIERLKLEVQKYEAWLAEAESRVLSNRGDSLSRHARPPDPPASAPPDSSSNSASQDTKESSEEPPSEESQDTPIYTEFDEDFEEEPTSPIGHCVAIYHFEGSSEGTISMAEGEDLSLMEEDKGDGWTRVRRKEGGEGYVPTSYLRVTLN | not failed |
| MDWTMISGSRDESLHAARDYWRRLNESECFDIEGIEAPPGAIALIPYDCQLPNSFHPLPLWVKLYASAGLHRFNMLEVLVNERSVGKLNIIVPIARPKGVTTNERFIPCDCFSVDDKLPQWPSHDSFNDRKRFYSVKESELQNNDWINLYLELVLCAIQKVRISDSDLSKLKIVKAVIETKEDMVPPNERLNAKTAVVYITFKGLANARIAAGEHYERKAIIRRIFNEHTGHLSLLGDLIGEKKFVNIDPVTYFNSPAYLEDITHELPPESPWMDILAGTGSMDQID | failed |
| MDYPDLAPRARSWAPHLLGVLRIVAAFLFLQFGTAKLFAFPGPVMPGGGTAPLASLAGIAGAIEAFGGALLLVGLFSRPVAFLLSGEMAVAYFYGHAPQGFWPVLNQGTPAALFAFVFLYLAAAGPGRFSLDGLRGKDAP | failed |
| MDYSQFLYMKEELSLIAVILILFVVDLLTCPDQKGATPKVNVRSLTLPAVILMTLHTVINLFPGTPAEAFGGMYQYTPMQTIIKAVLNVGTIIVLLMAHEWLKREDTRIKQGEFYVLTLSTLLGMYFMISAGHFLMFFIGLEMASIPMAALVAFDKYRHHSAEAGAKYILTALFSSALLLFGLSMIYGTSGTLYFNDLPGHITGNMLQIMAFVFFFAGMGFKISLVPFHLWTADVYEGAPTAVTSYLSVISKGSAAFVLMTILMKVFAPMVAQWQEVLFWVTIASITIANLFAIRQQNLKRFMAFSAISQAGYIMLGVIGGSEMGMTALVYYVLVYLAANLGVFAVISIVEQRSNKVEIDDYNGLYKTNPKLAFIMTLALFSLAGIPPFAGFFSKFFIFMAAFNSGFHLLVFIALINTVVSLYYYLLIVKAMYINPNEEPIPTFRSDNYTKVSLVLCTLGIIALGIASCIYQGIDKFSFGMGM | failed |
| MEADRGRNNKVRCAVVDTNVLMYVYLNKADVVGQLREFGFSRFLITASVKRELEKLEMSLRGKEKVAARFALKLLEHFEVVETESEGDPSLIEAAEKYGCILITNDKELKRKAKQRGIPVGYLKEDKRVFVELLD | not failed |
| MEALAELIKRKVPNEGLIIEVGVGFYLKVAKKLKEYGFNVVVVDINQEAVKNAIKERIPGFVDDVFNPNLKIYLKARAIYSIRPNPEIMMALLTLAKKVKVPLYIVPLSGDVPPREMKLINYKGISVYVWEP | failed |
| MEALGPGGDRASPASSTSSLDLWHLSMRADSAYSSFSAASGGPEPRTQSPGTDLLPYLDWDYVRVVWGGPGPAPPDAALCTSPRPRPAVAARSGPQPTEVPGTPGPLNRQATPLLYALAAEAEAAAQAAEPPSPPASRAAYRQRLQGAQRRVLRETSFQRKELRMSLPARLRPTVPARPPATHPRSASLSHPGGEGEPARSRAPAPGTAGRGPLANQQRKWCFSEPGKLDRVGRGGGPARECLGEACSSSGLPGPEPLEFQHPALAKFEDHEVGWLPETQPQGSMNLDSGSLKLGDAFRPASRSRSASGEVLGSWGGSGGTIPIVQAVPQGAETPRPLFQTKLSRFLPQKEAAVMYPAELPQSSPADSEQRVSETCIVPAWLPSLPDEVFLEEAPLVRMRSPPDPHASQGPPASVHASDQPYGTGLGQRTGQVTVPTEYPLHECPGTAGADDCWQGVNGSVGISRPTSHTPTGTANDNIPTIDPTGLTTNPPTAAESDLLKPVPADALGLSGNDTPGPSHNTALARGTGQPGSRPTWPSQCLEELVQELARLDPSLCDPLASQPSPEPPLGLLDGLIPLAEVRAAMRPACGEAGEEAASTFEPGSYQFSFTQLLPAPREETRLENPATHPVLDQPCGQGLPAPNNSIQGKKVELAARLQKMLQDLHTEQERLQGEAQAWARRQAALEAAVRQACAPQELERFSRFMADLERVLGLLLLLGSRLARVRRALARAASDSDPDEQASLLQRLRLLQRQEEDAKELKEHVARRERAVREVLVRALPVEELRVYCALLAGKAAVLAQQRNLDERIRLLQDQLDAIRDDLGHHAPSPSPARPPGTCPPVQPPFPLLLT | failed |
| MEALVVVHKVASEGGRRPKTTVSDESGSHSREKGKSFQVKDSPENNYATGKVDSLERSHFSSSYNQERRQSEEQRR | failed |
| MEASRFIEIGLLTRPHGLKGEVCVDYYADSPFLLEGTVYLKAGRAAPRPVKVQSMRMHKGRPLVIFEGVNDRTAAELLRGHVMLVPEDTLPELDEDEVYLFELEGISVVIDESGEHLGVIERIDTDAYQEIWVIRTPQGKEVLFPAAAPFVLDIDLDSRTARIAPPPGLLDIYLSD | failed |
| MEATGLITEYNPFHNGHLYHLKKAQELTKADVTIVLMSGNWVQRGLPAITDKWKRAQAAIDAGADLVFELPFYYAVQAGEIFAQGAVRLLSDLQVSSIICGSEHADIDFINLAAHEPDISGNSNFDKKNRTFASNYAAALEEKTGFYLENANDILAFSYAKAILNQNLTEKIKLRTISRVSADYHDQFLNDGEIASATAIRKALSEGQNVDSYTP | failed |
| MEATNLPQPSAPADLGALQRPSYFRRLGPFDWLFAALLALGAGYAFSRYGAYMDGYERGILVAAVPAFAWLGWTWKPVRTLMIGLAVLSLFAIAQYSGPNGPELARADRVFFLKYFLASQSAILWMSALIFLSTLFFWAGLAARWPAGGAIGSKLCWAAVVLGLTGMLVRWYESYLVGADIGHIPISNLYEVFILFTLITSLFYLYYEQRYRTRALGPFVMLVVSAAVGFLLWYTVSRGAQEIQPLVPALQSWWMKIHVPANFIGYGTFALAAMVGAAYLLKEHGVLADRLPSLEVLDDVMYKAITVGFAFFTIATILGALWAADAWGGYWSWDPKETWALIVWLNYAAWLHMRLMKGLRGRMAAWWALVGLLVTTFAFLGVNMFLSGLHSYGEL | failed |
| MEAVDLAFANYAERFARSCKGDGWRRLVERAIRLYLTPVLGKKALPAINRTDVVSVFDNMPADQVANRRNVFAVLRRLFRWAVSRGDLDRSLEHHHHHH | failed |
| MEAVTGYVKRKDLGRAVVQTDLGNPKAWEIRLTILTDEVLSENQKLATQKIDPSCAVDVSIGHGASDSPRGSSLAINEVRCECSSGISESDLETRGLAMIIDFVMRVASLERSVMNKRDLRFARVEKRFPKGKTKLKA | failed |
| MEAVVLPWQIFGVRELPVERGVTMKGPRLFRAPGHVPTGLKCHPDQEHMIYPLGCTVLIQAINTKEQNFLQGHGNNVSCLAISRSGEYIASGQVTFMGFKADIILWDYKNRELLARLSLHKGKIEALAFSPNDLYLVSLGGPDDGSVVVWSIAKRDAICGSPAAGLNVGNATNVIFSRCRDEMFMTAGNGTIRVWELDLPNRKIWPTECQTGQLKRIVMSIGVDDDDSFFYLGTTTGDILKMNPRTKLLTDVGPAKDKFSLGVSAIRCLKMGGLLVGSGAGLLVFCKSPGYKPIKKIQLQGGITSITLRGEGHQFLVGTEESHIYRVSFTDFKETLIATCHFDAVKDIVFPFGTAELFATCAKKDIRVWHTSSNRELLRITVPNMTCHGIDFMRDGKSIISAWNDGKIRAFAPETGRLMYVINNAHRIGVTAIATTSDCKRVISGGGEGEVRVWQIGCQTQKLEEALKEHKSSVSCIRVKRNNEECVTASTDGTCIIWDLVRLRRNQMILANTLFQCVCYHPEEFQIITSGTDRKIAYWEVFDGTVIRELEGSLSGSINGMDITQEGVHFVTGGNDHLVKVWDYNEGEVTHVGVGHSGNITRIRISPGNQYIVSVSADGAILRWKYPYTS | failed |
| MEAVVVEREAKGMKEIAIQEKDLTLQWRGNTGKLVKVRLKNTRAMEMWYNKQITEENIQEITTLNIIKNGKSLALEVYPEKSIYVKPNLGRINVPVFFIKTPINRGVFEEIFGETLKA | not failed |
| MECRECTNRNKLDFEFTMAFQPIVNLETQTIFAHEALVRGLNNESAQAIFQHINDSNRYLFDQSCRTTAIRLAAELHIPCFLSINFLPNAVYEPERCIRTTLEAAETYGFPIEQIIFEITESEQITDLVHLRKIVEYYRARGFKTAIDDFGAGYAGLNLLSEIQTDLIKLDMALIRGIDQDKVRQAIVKGVLQVAGELSSLVIAEGIETQAELTTLQGLGINLFQGFYFAKPTFQSLAQIPSDRFVNVA | failed |
| MEDDVTTTERLPAPPLDTASKRVGFISLGCPKALVDSERILTQLRAEGYEVAPSYEGADAVIVNTCGFITPAVEESLSAIGEALDATGKVIVTGCLGERPEKIMERHPKVAAITGSEAVDDVMGHVRELLPIDQGAFTGLLPVAAPGMRAGVETPQRENTRHGDVFAPSVKLTPRHYAYVKVAEGCNHTCAFCIIPKLRGLQVSRDAGAVLYEAYRLIAGGTKELMIIAQDTSAYGVDLRYRESEFQGEQVRAHLTDLAVKLGEMGAWVRMHYVYPYPHVDRVVELMAQGKVLPYLDIPLQHASPKILKLMRRPGAGKQLDTIRRWREICPELVIRSTFIVGFPGETEEDFQELLQFLEDARLDRVGAFPYSDIEEADANALPGAVPEEVKQERLARFMEVAQRISTEKLSEKVGRVMDVIIDEFNDDEDDQPGTRLIGRTKGDAPGIDGQVYLYAGDFAGLVKIGDIVRARIEDSDEYDLFGEVIEKPEWKPNVPQLGHFGKH | failed |
| MEDKTLGLLLDVVGELFSDEISIAVSNTKEYIYYRPSKRIDLKISAGDPIKEGTIAHKAMVTNQKTSEFMNRDVFGIPYHGMAVPFSNNGKLEGCVTAIYPALTDGKSVVTLKTTDGWIPVPFSKVMYLEAKDKKTYVNAEELTGTHKYSLQEFEYLLPKDSFIRCHRSFIVNVNHIKAIYPDTHSTFLLSMDNGERVPVSQSYASYFRKLLGF | not failed |
| MEDLLPTLPSLDHRDALPNALASPVLPAGQSDAQLVRTWLDTKYAAGLGIRASTRAQYALEAHRLLWYAHALGRPLASWQVADANGYLAFLADPPAHAVGDGRVRQDSPAWRPLRGPLSEASRRQTATIVGGLFEWLVGVEALRVNPFQAVPRARSARGPGSQRRFLEAEQLAAVFDAVEARPAPTLWAQLHKARDRLLLALLFHTGLRASEVTALTWPDFERQRGRHGDFWTVRIREAKGGSDQLVPCDNVMAELARFRQLVGLSPEPRATDTMAVVPAMAGGRQRLAPLTDTLALQRRLSRPVRTRQGLYTIVRQVFEAAAVRLEASGYAEGAANLRAASTHWLRHSHATHLLRAGVPVTDVQRTLRHRDINTTRRYTHEALEDVARSIGGKLPAVLEHHHHHH | failed |
| MEDLVTAPTPLDKRWLTEAVRLREEHAGPLEDQEANRHARQLGGDLATRIETRALFLAERDDMTGALRHWKQGARLALLALLLMAVLSGTGLGLAALGDGQRPVNVFWALGSLLGLNLLMLLGWGMGFALSGEHGAGLGRLWLWLSERFARDAKAAHLAPALLVLLQRQRLNRWLLGLLVHGLWLLAMLTALGMLLVLLATRRYGFVWETTLLAADPFIHLTQALGALPSLLGFAVPDEAMIRASGDSLPALDVARQAWASWLLGVVLVYGLLPRLLLAGLCLWRWRQGRERLTLDLGLPGYAQLREALMPRSERIGVQDAAPQALPQFAAGQLESGSSGALLVGLELDDQRPWPPALPKSVTDAGVLDSRESRNRLLEQLSRFPPARLAIACDPRRSPDRGSLALLAELARNAGATRIWLLQAAPGQPLDAERLGDWHEALDRLGLQHADTSPLTWLEHGHD | failed |
